Assay results as given in patent JP2024517985A.

T1: CD300c抗原(11832-H08H、Sino Biological) (UniProt Q08708)
T1 sequence (looked up): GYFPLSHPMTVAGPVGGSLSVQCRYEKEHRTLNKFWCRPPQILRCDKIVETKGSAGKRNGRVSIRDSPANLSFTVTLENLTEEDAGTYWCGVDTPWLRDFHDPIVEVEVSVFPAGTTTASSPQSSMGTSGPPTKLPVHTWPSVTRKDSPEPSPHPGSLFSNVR

B1: 抗-CD300cモノクローナル抗体 CK3 (antibody, from another filing, V domains shown)
VH: RVQLLESGGGLVQPGGSLRLSCAASGFTFSSYAISWVRQAPGKGLEWVSATSGSGRATYYADSVKGRFTISRDNSKNTLYLQMNSLRAEDTAVYYCARDTWWEGYFDLWGQGTLVTVSS
VL: EIVLTQSPGTLSLSPGERATLSCQASHISTHLNWYQQKPGQAPRLLIYGASSRATGIPDRFSGSGSGTDFTLTISRLEPEDFAVYYCQQYNTYPPTFGQGTKVEIK
B2: 抗-CD300cモノクローナル抗体 SK15 (antibody, from another filing, V domains shown)
VH: RVQLLESGGGLVQPGGSLRLSCAASGFTFSSYAMHWVRQAPGKGLEWVSAINGSGGSTYYADSVKGRFTISRDNSKNTLYLQTNSLRAEDTAVYYCARGLQGFDYWGQGTLVTVSS
VL: EIVLTQSPGTLSLSPGERATLSCQASQDITNYLNWYQQKPGQAPRLLIYDASSLETGIPDRFSGSGSGTDFTLTISRLEPEDFAVYYCQQSYSTPITFGQGTKVEIK
B3: 抗-CD300cモノクローナル抗体 SK16 (antibody, from another filing, V domains shown)
VH: RVQLLESGGGLVQPGGSLRLSCAASGFTFSSYAMSWVRQAPGKGLEWVSAINGSGGSTLYADSVKGRFTISRDNSKNTLYLQMNSLRAEDTAVYYCARGVSGFDSWGQGTLVTVSS
VL: EIVLTQSPGTLSLSPGERATLSCRISQSISSYLNWYQQKPGQAPRLLIYDASLRATGIPDRFSGSGSGTDFTLTISRLEPEDFAVYYCQQSYKTPITFGQGTKVEIK

Target: T1, CD300c抗原(11832-H08H、Sino Biological)
Test: binding ELISA, CD300c antigen coated at 8 ug/mL, HRP anti-Fc IgG

| Binder | EC50 |
| --- | --- |
| B1 | > 0.2 µg/mL |
| B2 | > 0.2 µg/mL |
| B3 | > 0.2 µg/mL |
